Test results from US20260049151A1 (SHENGHE CHINA BIOPHARMACEUTICAL, published 2026).
Like-named read-outs stand apart in the source and are kept apart here.

T1: Human-TNFR2-His (human, UniProt P20333 23-257)
T1 construct: Bought protein; also called human TNFR2 protein; TNFR2 protein; not shown: His tag
T1 sequence (looked up): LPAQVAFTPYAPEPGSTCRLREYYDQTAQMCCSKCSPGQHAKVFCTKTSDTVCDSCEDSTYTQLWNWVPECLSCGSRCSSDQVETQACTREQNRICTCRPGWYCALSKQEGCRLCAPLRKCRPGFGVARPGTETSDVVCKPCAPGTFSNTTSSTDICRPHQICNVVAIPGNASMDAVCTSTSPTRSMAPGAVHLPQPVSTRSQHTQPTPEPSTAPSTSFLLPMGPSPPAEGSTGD

T2: Human TNFR2 mFc (human, UniProt P20333 23-257)
T2 construct: Bought protein; not shown: mFc
T2 sequence (looked up): T1 sequence (looked up)

B1: Antibody N (bispecific antibody, human IgG1, kappa)
light: EVQLVESGGGLVQPGGSLRLSCAASGSRLDYYAVAWFRQAPGKEREEVSCITYSGGSTNYAESVKGRFTISRDNSKNTLYLQMNSLRAEDTAVYYCTTEPYGSSCPLSGYDTWGQGTLVTVSSGGGGSGGGGSGGGGSDIQMTQSPSSLSASLGDRVTISCSASQGISNYLNWYQQKPDGTVKLLIYYTSTLHSGVPSRFSGSGSGTDYTLTISSLQPEDIATYYCQQYSKLPWTFGGGTKLEIKRTVAAPSVFIFPPSDEQLKSGTASVVCLLNNFYPREAKVQWKVDNALQSGNSQESVTEQDSKDSTYSLSSTLTLSKADYEKHKVYACEVTHQGLSSPVTKSFNRGEC
heavy: not shown
notes: IgG1 subtype; full-length 4-1BB antibody with TNFR2 VHH at the N-terminus of the light chains
B2: Antibody K (bispecific antibody, human IgG1, kappa)
light: DIQMTQSPSSLSASLGDRVTISCSASQGISNYLNWYQQKPDGTVKLLIYYTSTLHSGVPSRFSGSGSGTDYTLTISSLQPEDIATYYCQQYSKLPWTFGGGTKLEIKRTVAAPSVFIFPPSDEQLKSGTASVVCLLNNFYPREAKVQWKVDNALQSGNSQESVTEQDSKDSTYSLSSTLTLSKADYEKHKVYACEVTHQGLSSPVTKSFNRGECGGGGSGGGGSEVQLVESGGGLVQPGGSLRLSCAASGSRLDYYAVAWFRQAPGKEREEVSCITYSGGSTNYAESVKGRFTISRDNSKNTLYLQMNSLRAEDTAVYYCTTEPYGSSCPLSGYDTWGQGTLVTVSS
heavy: not shown
notes: IgG1 subtype; full-length 4-1BB antibody with TNFR2 VHH at the C-terminus of the light chains
B3: Antibody G (bispecific antibody, human IgG1, kappa)
light: DIVMTQSPATLSVSPGERATLSCKASQNVGSNVDWYQQKPGQSPRVLIYKASIRYTGIPARFSGSGSGTEFTLTISILQSEDFAVYFCMQSKSYPITFGQGTKLEIKRTVAAPSVFIFPPSDEQLKSGTASVVCLLNNFYPREAKVQWKVDNALQSGNSQESVTEQDSKDSTYSLSSTLTLSKADYEKHKVYACEVTHQGLSSPVTKSFNRGEC
heavy: not shown
notes: IgG1 subtype; full-length TNFR2 antibody with 4-1BB scFv at the N-terminus of the heavy chains
B4: Antibody E2 (bispecific antibody, human IgG4 S228P, kappa)
light: B3 light
heavy: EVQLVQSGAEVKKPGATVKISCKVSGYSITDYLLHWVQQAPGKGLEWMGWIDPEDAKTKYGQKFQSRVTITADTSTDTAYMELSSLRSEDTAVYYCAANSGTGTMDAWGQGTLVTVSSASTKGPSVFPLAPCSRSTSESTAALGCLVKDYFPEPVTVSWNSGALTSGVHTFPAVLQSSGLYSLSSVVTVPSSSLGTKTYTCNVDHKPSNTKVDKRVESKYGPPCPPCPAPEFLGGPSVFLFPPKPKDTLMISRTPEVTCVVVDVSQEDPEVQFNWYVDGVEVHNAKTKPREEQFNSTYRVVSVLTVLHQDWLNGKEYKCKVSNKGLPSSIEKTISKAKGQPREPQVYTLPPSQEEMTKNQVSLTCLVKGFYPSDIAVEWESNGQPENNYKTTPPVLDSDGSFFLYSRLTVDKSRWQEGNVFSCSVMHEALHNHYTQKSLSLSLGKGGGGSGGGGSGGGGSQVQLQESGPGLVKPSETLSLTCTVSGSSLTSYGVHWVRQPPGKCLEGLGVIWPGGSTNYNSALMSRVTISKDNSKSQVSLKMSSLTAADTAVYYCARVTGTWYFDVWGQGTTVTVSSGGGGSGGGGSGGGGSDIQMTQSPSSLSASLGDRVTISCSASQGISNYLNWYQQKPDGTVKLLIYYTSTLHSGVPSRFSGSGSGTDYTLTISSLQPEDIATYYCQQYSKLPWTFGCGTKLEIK
notes: IgG4 subtype; same order as E1

How the values were obtained:
Human 4-1BB Fc = target: T3, Human 4-1BB Fc (human, UniProt Q07011 24-186); assay: bridging ELISA: Human 4-1BB Fc coated (0.3 ug/mL), antibody titrated, then Human-TNFR2-His (0.3 ug/mL), HRP anti-His detection (Example 4)
T3 construct: same catalogue and lot number as Human 4-1BB His; not shown: Fc
Protocol: Human 4-1BB Fc (manufacturer: Acro, CAT: 41B-H5258, LOT: 198-2146F1-W6) was diluted to 0.3 μg/mL with a coating solution (1×PBS, pH7.4) and coated into a 96-well ELISA plate at 100 µL/well at 4° C. overnight. The coating solution was poured off. Each well was washed with 1×PBST at 300 μL, washed 4 times with a plate washer, and patted dry on a flat sheet. It was blocked with 3% skim milk powder at 300 μL/well, and incubated at 37° C. for 1 h. The blocking solution was poured off, washed 4 times with a plate washer, and patted dry on a flat sheet. […] Starting at 50 nM, which was used as the initial concentration for 3-fold dilution, a total of 10 gradients were diluted, and a blank well was set up and only the diluent was added. It was incubated at 37° C. for 1 h at 100 μL/well. The liquid in the well was discarded, washed 4 times with a plate washer, and patted dry on a flat paper. Human-TNFR2-His (manufacturer: Sino, CAT: 10417-H08H, LOT: LC15NO0412) was diluted to 0.3 μg/mL, 100 μL was added to each well, and incubated at room temperature for 1 h. The plate was washed 3 times with PBST, and then the HRP-labeled his antibody was diluted with sample diluent at 1:5000, 100 μ L was added to each well, and incubated at room temperature for 1 h. It was washed 6 times with a plate washer, and patted dry on a flat paper. TMB color developing solution was added at 100 μL/well, and wrapped with aluminum foil. Color development was performed at 37° C. in the dark for 8 min. Termination solution 1M HCl was added to terminate the color development reaction at 100 μL/well. Readings were taken at 450 nm on an ELISA reader.

Human 4-1BB His [1] = target: T4, Human 4-1BB His (human, UniProt Q07011 24-186); assay: ELISA: Human 4-1BB His coated (0.2 ug/mL), antibody titrated, goat anti-human IgG Fc detection (Example 3)
T4 construct: Bought protein; lots 198-2146F1-W6 and 2407c-214FF1-YC; also called human 4-1BB protein; 4-1BB protein; not shown: His tag
Protocol: (§1) Human 4-1BB His (manufacturer: Acro, CAT: 41B-H5258, LOT: 198-2146F1-W6) was diluted to 0.2 μg/mL with a coating solution (1×PBS, pH7.4), and coated in 96-well ELISA plate at 100 μL/well overnight at 4° C. The coating solution was poured off. Each well was washed with 1×PBST at 300 μL, washed 4 times with a plate washer, and patted dry on a flat paper. It was blocked with 3% skim milk powder at 300 μL/well, and incubated at 37° C. for 1 h. The blocking solution was poured off, washed 4 times with a plate washer, and patted dry on a flat paper. Negative control and positive control were set up. […] The variable region of the antibody sequence of the positive control consists of SEQ ID NO: 15 and SEQ ID NO: 19, with the addition of the constant region of human IgG1 (SEQ ID NO: 46 and SEQ ID NO: 47). The positive control and antibody were diluted to 10 μg/mL with 3% skim milk powder as the starting concentration, and then diluted by 3-fold gradient (11 gradients in total), and a blank well was set up and only the diluent was added. It was incubated at 37° C. for 1 h at 100 μL/well. The liquid in the well was discarded, washed 4 times with a plate washer, and patted dry on a flat paper. Goat anti-human IgG Fc was diluted with 3% skim milk powder at 1:20000, and incubated at 37° C. for 1 h at 100 μL/well. It was washed 6 times with a plate washer, and patted dry on a flat paper. TMB color developing solution was added at 100 μL/well, and wrapped with aluminum foil. Color development was performed at 37° C. in the dark for 8 min. Termination solution 1M HCl was added to terminate the color development reaction at 100 μL/well. Readings were taken at 450 nm on an ELISA reader.

Human-TNFR2-His [2] = target: T1, Human-TNFR2-His; assay: ELISA: Human-TNFR2-His coated (0.1 ug/mL), antibody titrated, goat anti-human IgG Fc detection (Example 2)
Protocol: (§2) Human-TNFR2-His (manufacturer: SINO, CAT: 10417-H08H, LOT: LC15NO0412) was diluted to 0.1 μg/mL with a coating solution (1×PBS, pH7.4), and coated in 96-well ELISA plate at 100 µL/well overnight at 4° C. The coating solution was poured off. Each well was washed with 1×PBST at 300 μL, washed 4 times with a plate washer, and patted dry on a flat paper. It was blocked with 3% skim milk powder at 300 μL/well, and incubated at 37° C. for 1 h. The blocking solution was poured off, washed 4 times with a plate washer, and patted dry on a flat paper. Negative control and positive control were set up. […] The positive control and antibody were diluted to 10 μg/mL with 3% skim milk powder as the starting concentration, and then diluted by 3-fold gradient (11 gradients in total), and a blank well was set up and only the diluent was added. It was incubated at 37° C. for 1 h at 100 μL/well. The liquid in the well was discarded, washed 4 times with a plate washer, and patted dry on a flat paper. Goat anti-human IgG Fc was diluted with 3% skim milk powder at 1:10000, and incubated at 37° C. for 1 h at 100 μL/well. It was washed 6 times with a plate washer, and patted dry on a flat paper. TMB color developing solution was added at 100 μL/well, and wrapped with aluminum foil. Color development was performed at 37° C. in the dark for 8 min. Termination solution 1M HCl was added to terminate the color development reaction at 100 μL/well. Readings were taken at 450 nm on an ELISA reader.

Human-TNFR2-His [3] = target: T1, Human-TNFR2-His; assay: as above; remark: listed apart in the source
Protocol: as §2

Human TNFR2 mFc = target: T2, Human TNFR2 mFc; assay: bridging ELISA: Human TNFR2 mFc coated (0.3 ug/mL), antibody titrated, then Human 4-1BB His (0.3 ug/mL), HRP anti-His detection (Example 5)
Protocol: Human TNFR2 mFc (manufacturer: Kaixia, CAT: TN-HM3R2, LOT: 031202) was diluted to 0.3 μg/mL with a coating solution (1×PBS, pH7.4) and coated into a 96-well ELISA plate at 100 μL/well at 4° C. overnight. The coating solution was poured off. Each well was washed with 1×PBST at 300 μL, washed 4 times with a plate washer, and patted dry on a flat paper. It was blocked with 3% skim milk powder at 300 μL/well, and incubated at 37° C. for 1 h. The blocking solution was poured off, washed 4 times with a plate washer, and patted dry on a flat paper. […] Starting at 50 nM, which was used as the initial concentration for 3-fold dilution, a total of 10 gradients were diluted, and a blank well was set up and only the diluent was added. It was incubated at 37° C. for 1 h at 100 µL/well. The liquid in the well was discarded, washed 4 times with a plate washer, and patted dry on a flat paper. Human 4-1BB His (manufacturer: Acro, CAT: 41B-H5258, LOT: 198-2146F1-W6) was diluted to 0.3 μg/mL, 100 μL was added to each well, and incubated at room temperature for 1 h. The plate was washed 3 times with PBST, and then the HRP-labeled his antibody was diluted with sample diluent at 1:5000, 100 μ L was added to each well, and incubated at room temperature for 1 h. It was washed 6 times with a plate washer, and patted dry on a flat paper. TMB color developing solution was added at 100 μL/well, and wrapped with aluminum foil. Color development was performed at 37° C. in the dark for 8 min. Termination solution 1M HCl was added to terminate the color development reaction at 100 μL/well. Readings were taken at 450 nm on an ELISA reader.

Human-TNFR2-His [4] = target: T1, Human-TNFR2-His; assay: ELISA: Human-TNFR2-His coated (0.1 ug/mL), antibody titrated, goat anti-human IgG Fc detection (Example 2); remark: listed apart in the source
Protocol: as §2

Human 4-1BB His [5] = target: T4, Human 4-1BB His; assay: ELISA: Human 4-1BB His coated (0.2 ug/mL), antibody titrated, goat anti-human IgG Fc detection (Example 3); remark: listed apart in the source
Protocol: as §1

Human 4-1BB His [6] = target: T4, Human 4-1BB His; assay: as above; remark: listed apart in the source
Protocol: as §1

Human-TNFR2-His [7] = target: T1, Human-TNFR2-His; assay: ELISA: Human-TNFR2-His coated (0.1 ug/mL), antibody titrated, goat anti-human IgG Fc detection (Example 2); remark: listed apart in the source
Protocol: as §2

T3 sequence (Q07011 24-186 limits assumed): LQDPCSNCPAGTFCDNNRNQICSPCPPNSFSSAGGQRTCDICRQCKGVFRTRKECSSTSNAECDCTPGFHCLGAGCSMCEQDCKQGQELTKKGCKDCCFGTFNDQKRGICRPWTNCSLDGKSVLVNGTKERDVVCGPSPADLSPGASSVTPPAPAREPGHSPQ
T4 sequence (Q07011 24-186 limits assumed): as above

Row | Binder | EC50 (read off the curve) (Human 4-1BB Fc) | EC50 (read off the curve) (Human 4-1BB His [1]) | EC50 (read off the curve) (Human-TNFR2-His [2]) | EC50 (read off the curve) (Human-TNFR2-His [3]) | EC50 (read off the curve) (Human TNFR2 mFc) | EC50 (read off the curve) (Human-TNFR2-His [4]) | EC50 (read off the curve) (Human 4-1BB His [5]) | EC50 (read off the curve) (Human 4-1BB His [6]) | EC50 (read off the curve) (Human-TNFR2-His [7])
1 | B1 | ~0.3 nM | ~0.3 nM | ~0.1 nM |  |  |  |  |  | 
2 | B2 | ~0.3 nM | ~0.1 nM |  | ~0.6 nM | ~0.2 nM |  |  |  | 
3 | B3 | ~0.5 nM |  |  |  | ~0.2 nM | ~0.1 nM | ~0.07 nM |  | 
4 | B4 |  |  |  |  |  |  |  | 0.3 to 0.4 nM | ~0.2 nM
